Where two headings read alike, the source gives them in different places.
Columns and labels:
Assay in all cases: cell-based or functional assay
[1] = biological target: T1, human GPC3 on tumor cell lines (HepG2, Huh-7, NCI-H661, MKN-45, NCI-H23, BxPC-3, NCI-H292) (human, UniProt P51654 25-554)
[2] = biological target: T1, human GPC3 on tumor cell lines (HepG2, …); remark: listed apart in the source
[3] = biological target: T1, human GPC3 on tumor cell lines (HepG2, …); remark: listed apart in the source
[4] = biological target: T1, human GPC3 on tumor cell lines (HepG2, …); remark: listed apart in the source

B1: A022600122 (other)
chain: DVQLVESGGGVVQPGGSLRLSCVASGYVHKINFYGWYRQAPGKEREKVAHISIGDQTDYADSAKGRFTISRDESKNTVYLQMNSLRPEDTALYYCRALSRIWPYDYWGQGTLVTVSSGGGGSEVQLVESGGGLVQPGGSLRLSCVASGFTFSSFAMTWVRRPPGKGLEWVATITNGGVTSYRDSVKGRFTISRDNAKNTLYLEMTSLNPEDTAVYICANARRTGPRAPTDIGSYRGQGTLVTVSSGGGGSGGGGSGGGGSGGGGSGGGGSGGGGSGGGGSEVQLVESGGGLVQPGGSLRLSCVASGSIFRSVFSSSTMEWYRQPPGKKRELVARIAPGDGTNYGALYADSVKGRFTISRDDAKKTVDLQMNSLKPEDTGVYFCASGVAWGQGTLVTVSSGGGGSGGGGSGGGGSGGGGSGGGGSGGGGSGGGGSEVQLVESGGGVVQPGGSLRLSCAASGFTFRSFGMSWVRQAPGKGPEWVSSISGSGSDTLYADSVKGRFTISRDNSKNTLYLQMNSLRPEDTALYYCTIGGSLSRSSQGTLVTVSSA
IC50 (M), Incucyte human TDC HepG2-Nuclight green assay [1]: 4.45e-10 M
Max % Killing, Incucyte human TDC HepG2-Nuclight green assay [1]: 92%
HepG2 on Incucyte IC50 [2]: 0.53 nM
HepG2 on Incucyte Max % killing [2]: 93%
Huh7 on xCELLigence IC50 [2]: 0.261 nM
Huh7 on xCELLigence Max % killing [2]: 101%

B2: A022600135 (other)
chain: DVQLVESGGGVVQPGGSLRLSCVASGYVHKINFYGWYRQAPGKEREKVAHISIGDQTDYADSAKGRFTISRDESKNTVYLQMNSLRPEDTALYYCRALSRIWPYDYWGQGTLVTVSSGGGGSEVQLVESGGGLVQPGGSLRLSCVASGSIFRSVFSSSTMEWYRQPPGKKRELVARIAPGDGTNYGALYADSVKGRFTISRDDAKKTVDLQMNSLKPEDTGVYFCASGVAWGQGTLVTVSSGGGGSGGGSEVQLVESGGGLVQPGGSLRLSCVASGFTFSSFAMTWVRRPPGKGLEWVATITNGGVTSYRDSVKGRFTISRDNAKNTLYLEMTSLNPEDTAVYICANARRTGPRAPTDIGSYRGQGTLVTVSSGGGGSGGGGSGGGGSGGGGSGGGGSGGGGSGGGGSEVQLVESGGGVVQPGGSLRLSCAASGFTFRSFGMSWVRQAPGKGPEWVSSISGSGSDTLYADSVKGRFTISRDNSKNTLYLQMNSLRPEDTALYYCTIGGSLSRSSQGTLVTVSSA
IC50 (M), Incucyte human TDC HepG2-Nuclight green assay [1]: 6.11e-10 M
Max % Killing, Incucyte human TDC HepG2-Nuclight green assay [1]: 91%

B3: A022600174 (other)
chain: DVQLVESGGGVVQPGGSLRLSCVASGYVHKINFYGWYRQAPGKEREKVAHISIGDQTDYADSAKGRFTISRDESKNTVYLQMNSLRPEDTAAYYCRALSRIWPYDYWGQGTLVTVSSGGGGSEVQLVESGGGLVQPGGSLRLSCVASGFTFSSFAMTWVRRPPGKGLEWVATITNGGVTSYRDSVKGRFTISRDNAKNTLYLEMTSLNPEDTAVYICANARRTGPRAPTDIGSYRGQGTLVTVSSGGGGSGGGSEVQLVESGGGLVQPGGSLRLSCVASGSIFRSVFSSSTMEWYRQPPGKKRELVARIAPGDGTNYGALYADSVKGRFTISRDDAKKTVDLQMNSLKPEDTGVYFCASGVAWGQGTLVTVSSGGGGSGGGSEVQLVESGGGVVQPGGSLRLSCAASGFTFRSFGMSWVRQAPGKGPEWVSSISGSGSDTLYADSVKGRFTISRDNSKNTLYLQMNSLRPEDTALYYCTIGGSLSRSSQGTLVTVSSA
HepG2 on Incucyte IC50 [3]: 0.673 nM
HepG2 on Incucyte Max % killing [3]: 96%
Huh7 on xCELLigence IC50 [3]: 0.0626 nM
Huh7 on xCELLigence Max % killing [3]: 99%
HepG2 on Incucyte IC50 [4]: 0.673 nM
HepG2 on Incucyte Max % killing [4]: 96%
Huh7 on xCELLigence IC50 [4]: 0.0626 nM
Huh7 on xCELLigence Max % killing [4]: 99%

B4: A022600133 (other)
chain: DVQLVESGGGVVQPGGSLRLSCVASGYVHKINFYGWYRQAPGKEREKVAHISIGDQTDYADSAKGRFTISRDESKNTVYLQMNSLRPEDTALYYCRALSRIWPYDYWGQGTLVTVSSGGGGSEVQLVESGGGLVQPGGSLRLSCVASGSIFRSVFSSSTMEWYRQPPGKKRELVARIAPGDGTNYGALYADSVKGRFTISRDDAKKTVDLQMNSLKPEDTGVYFCASGVAWGQGTLVTVSSGGGGSGGGGSGGGGSGGGGSGGGGSGGGGSGGGGSEVQLVESGGGLVQPGGSLRLSCVASGFTFSSFAMTWVRRPPGKGLEWVATITNGGVTSYRDSVKGRFTISRDNAKNTLYLEMTSLNPEDTAVYICANARRTGPRAPTDIGSYRGQGTLVTVSSGGGGSGGGGSGGGGSGGGGSGGGGSGGGGSGGGGSEVQLVESGGGVVQPGGSLRLSCAASGFTFRSFGMSWVRQAPGKGPEWVSSISGSGSDTLYADSVKGRFTISRDNSKNTLYLQMNSLRPEDTALYYCTIGGSLSRSSQGTLVTVSSA
IC50 (M), Incucyte human TDC HepG2-Nuclight green assay [1]: 4.08e-10 M
Max % Killing, Incucyte human TDC HepG2-Nuclight green assay [1]: 92%

B5: A022600131 (other)
chain: DVQLVESGGGVVQPGGSLRLSCVASGYVHKINFYGWYRQAPGKEREKVAHISIGDQTDYADSAKGRFTISRDESKNTVYLQMNSLRPEDTALYYCRALSRIWPYDYWGQGTLVTVSSGGGGSEVQLVESGGGLVQPGGSLRLSCVASGFTFSSFAMTWVRRPPGKGLEWVATITNGGVTSYRDSVKGRFTISRDNAKNTLYLEMTSLNPEDTAVYICANARRTGPRAPTDIGSYRGQGTLVTVSSGGGGSGGGGSGGGGSGGGGSEVQLVESGGGLVQPGGSLRLSCVASGSIFRSVFSSSTMEWYRQPPGKKRELVARIAPGDGTNYGALYADSVKGRFTISRDDAKKTVDLQMNSLKPEDTGVYFCASGVAWGQGTLVTVSSGGGGSGGGGSGGGGSGGGGSGGGGSGGGGSGGGGSEVQLVESGGGVVQPGGSLRLSCAASGFTFRSFGMSWVRQAPGKGPEWVSSISGSGSDTLYADSVKGRFTISRDNSKNTLYLQMNSLRPEDTALYYCTIGGSLSRSSQGTLVTVSSA
IC50 (M), Incucyte human TDC HepG2-Nuclight green assay [1]: 4.44e-10 M
Max % Killing, Incucyte human TDC HepG2-Nuclight green assay [1]: 94%

B6: A022600134 (other)
chain: DVQLVESGGGVVQPGGSLRLSCVASGYVHKINFYGWYRQAPGKEREKVAHISIGDQTDYADSAKGRFTISRDESKNTVYLQMNSLRPEDTALYYCRALSRIWPYDYWGQGTLVTVSSGGGGSEVQLVESGGGLVQPGGSLRLSCVASGSIFRSVFSSSTMEWYRQPPGKKRELVARIAPGDGTNYGALYADSVKGRFTISRDDAKKTVDLQMNSLKPEDTGVYFCASGVAWGQGTLVTVSSGGGGSGGGGSGGGGSGGGGSEVQLVESGGGLVQPGGSLRLSCVASGFTFSSFAMTWVRRPPGKGLEWVATITNGGVTSYRDSVKGRFTISRDNAKNTLYLEMTSLNPEDTAVYICANARRTGPRAPTDIGSYRGQGTLVTVSSGGGGSGGGGSGGGGSGGGGSGGGGSGGGGSGGGGSEVQLVESGGGVVQPGGSLRLSCAASGFTFRSFGMSWVRQAPGKGPEWVSSISGSGSDTLYADSVKGRFTISRDNSKNTLYLQMNSLRPEDTALYYCTIGGSLSRSSQGTLVTVSSA
IC50 (M), Incucyte human TDC HepG2-Nuclight green assay [1]: 5.28e-10 M
Max % Killing, Incucyte human TDC HepG2-Nuclight green assay [1]: 92%

From patent US20240343823A1 (Ablynx, published 2024)
